Measured values reported in patent US20090036380A1, “Composition And Method For Brain Tumor Therapy” (Yeda Research and Development Co., Ltd., priority 2006, published 2009).

Columns and labels:
COS cells = experiment: Viability of COS cells expressing Karet; format: cell-based
necdin = target: T1, necdin (Homo sapiens, UniProt Q99608); experiment: Co-immunoprecipitation of Karet with necdin; format: binding; conditions: necdin-PC12 cells, during 50 ng/ml NGF treatment
T1 construct: expressed in transfected cells
T1 sequence (Q99608 1-321): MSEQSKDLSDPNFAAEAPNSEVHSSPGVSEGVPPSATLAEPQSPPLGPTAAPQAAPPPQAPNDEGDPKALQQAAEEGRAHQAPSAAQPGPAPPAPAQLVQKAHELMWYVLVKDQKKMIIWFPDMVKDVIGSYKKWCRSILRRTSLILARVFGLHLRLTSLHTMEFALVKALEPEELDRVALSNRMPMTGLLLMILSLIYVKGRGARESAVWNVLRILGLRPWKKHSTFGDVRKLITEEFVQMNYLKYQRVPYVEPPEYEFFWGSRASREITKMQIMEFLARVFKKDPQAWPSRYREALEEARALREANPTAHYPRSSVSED
Description: Karet tagged with the HA epitope was immunoprecipitated with anti-HA antibody, the precipitated proteins were separated electrophoretically, and gel blots were incubated with anti-necdin. In control experiments the HA-Karet was substituted with vector.
FIGS. 4a-c are co-immunoprecipitation assay results depicting the influence of NGF treatment on TrkA-Karet interaction. FIG. 4a depicts that TrkA-Karet interaction occurred prior to NGF treatment and was enhanced after ligand stimulation for 10 minutes (10 m) or 2 hours (2 h). HA-Karet was electroporated into cell line PC12, and the cells were treated with 50 ng/ml NGF for the indicated time periods in order to activate p75 and TrkA. Karet tagged with the HA epitope was immunoprecipitated with anti-HA antibody, the precipitated proteins were separated electrophoretically, and gel blots were incubated with anti-TrkA antibody (RTA). FIG. 4b depicts that necdin seems to compete with TrkA for binding to Karet. myc-Karet was electroporated into necdin stable cell line, and the cells were treated with 50 ng/ml NGF for the indicated time periods. Karet tagged with the myc epitope was immunoprecipitated with anti-myc antibody, the precipitated proteins were separated electrophoretically, and gel blots were incubated with anti-TrkA antibody (RTA). […] A blot from the same experiment was stripped and re-incubated with anti-necdin antibody. […]

TrkB = target: T2, TrkB (Homo sapiens, UniProt Q16620); experiment: Co-immunoprecipitation of Ha Karet with TrkB in Hek cells; format: binding; conditions: co-transfected Hek cells
T2 construct: expressed in transfected cells; host or cells: Hek cells
Description: FIGS. 24a-d depict co IP of Ha Karet with TrkA, TrkB, TrkC, p75 from co-transfected Hek cells. Cells were co-transfected with Ha Karet or control vector and TrkA, TrkB, TrkC or p75. Cells were lysed with NP40, the HA-beads (beads conjugated to anti-HA antibody) were blocked with Hek lysate, and elution was done for 30 minutes at 37° C. Proteins from anti-HA-IP (FIGS. 24a and b) or from cell lysates without IP (FIGS. 24c and d) were subjected to Western blot analysis and the membranes were probed with anti pan trk (FIGS. 24a and c) or anti-p75 (FIGS. 24b and d) antibodies. Note the specific co-IP of Karet with TrkA (FIG. 24a, lane 1), Karet with TrkB (FIG. 24a, lane 3), Karet with TrkC (FIG. 24a, lane 5) and the lack of IP between karet and p75 (FIG. 24b, lane 7).

For “Karet: full-length mouse Karet protein (SEQ ID NO:1), PTB domain protein, expressed from pcDNA3 with HA tag”, the cell viability (COS cells) was “no reduction in cell viability”, the interaction with necdin (necdin) was “robust and constant” and the “co-immunoprecipitation with TrkB” value (TrkB) was “co-immunoprecipitated”.
